Laboratory results: US20140134183A1 (CELL MEDICA SWITZERLAND, published 2014)
Numbering of substitutions follows the chain as printed.

B1: DLX2464 (scFv)
scFv: EIVMTQSPSTLSASVGDRVIITCQASQSIDNWLSWYQQKPGKAPKLLIYRASTLASGVPSRFSGSGSGAEFTLTISSLQPDDFATYYCQNTGGGVSIAFGQGTKLTVLGGGGGSGGGGSGGGGSGGGGSEVQLVESGGGLVQPGGSLRLSCTASGFSLSSAAMAWVRQAPGKGLEWVGIIYDSASTYYASWAKGRFTISRDTSKNTVYLQMNSLRAEDTAVYYCARERQIFSGDMAGWGQGTLVTVSS
B2: DLX2465 (scFv)
scFv: B1 scFv with Q229N, A236D, G237L
B3: DLX2466 (scFv)
scFv: B1 scFv with D30G, N31K, W32Y, T91A, A161D, Q229N
B4: DLX2467 (scFv)
scFv: B1 scFv with D30H, T53N, V95S, S160R, Q229M, M235F, A236V, G237L
B5: DLX2468 (scFv)
scFv: B1 scFv with D30G, W32Y, T91A, V95T, A161S, Q229N, A236V, G237L
B6: DLX2475 (scFv)
scFv: B1 scFv with N31K, R50Q, S96H, A161Y, Q229A, M235F, A236K, G237L
B7: DLX2476 (scFv)
scFv: B1 scFv with D30S, N31S, Q229D, M235F, A236V
B8: DLX2480 (scFv)
scFv: B1 scFv with V95I, S96N, S160D, M235F, A236V, G237L
B9: DLX2677 (scFv)
scFv: EIVMTQSPSTLSASVGDRVTITCQASQSIGNWLAWYQQKPGKAPKLLIYQASNLASGVPSRFSGSGSGTDFTLTISSLQPDDFATYYCQNAGGATTIAFGQGTKLTVLGGGGGSGGGGSGGGGSGGGGSEVQLVESGGGNVQPGGSLRLSCTASGFSLSNSAMAWVRQAPGKGLEWVGIIYDSASTYYASWAKGRFTISRDNSKNTVYLQMNSLRAEDTATYYCARERAIFSGDFALWGQGTLVTVSS
notes: tested as cleared E. coli lysate; also called DLX2528_2531
B10: DLX2676 (scFv)
scFv: B9 scFv with N160D, S161A, Y187F, V207L, A229N, F235M, L243T
notes: tested as cleared E. coli lysate; also called DLX2528_2530
B11: DLX2679 (scFv)
scFv: B9 scFv with N140L, A153V, N160S, S161Y, A164S, R200K, N202T, T221V, A236D, L237Y
notes: tested as cleared E. coli lysate; also called DLX2528_2585
B12: DLX2685 (scFv)
scFv: B9 scFv with G30S, N31S, A34S, Q50K, N53T, D70E, A94G, T95V, T96S
notes: tested as cleared E. coli lysate; also called DLX2543_2531
B13: DLX2695 (scFv)
scFv: ADIVMTQSPSTLSASVGDRVTITCQASQSISSYLSWYQQKPGKAPKLLIYRASTLASGVPSRFSGSGSGAEFTLTISSLQPDDFATYYCQNTGGGINIAFGQGTKLEIKRGGGGSGGGGSGGGGSGGGGSEVQLVESGGGLVQPGGSLRLSCTVSGFSLSSYAMSWVRQAPGKGLEWVGIIYDSASTYYASWAKGRFTISKDTSKNTVYLQMNSLRAEDTAVYYCARERAIFSGDFDYWGQGTLVTVSS
notes: tested as cleared E. coli lysate; also called DLX2547_2585
B14: DLX2691 (scFv)
scFv: B13 scFv with R51K, A70T, E71D, D82E, T92A, L106V
notes: tested as cleared E. coli lysate; also called DLX2544_2585
B15: DLX2694 (scFv)
scFv: B13 scFv with V178I, V208L, Y224F, A230Q, F236M, Y238G, L244T
notes: tested as cleared E. coli lysate; also called DLX2547_2548
B16: DLX2678 (scFv)
scFv: EIVMTQSPSTLSASVGDRVTITCQASQSIGNWLAWYQQKPGKAPKLLIYQASNLASGVPSRFSGSGSGTDFTLTISSLQPDDFATYYCQNAGGATTIAFGQGTKLTVLGGGGGSGGGGSGGGGSGGGGSEVQLVESGGGLVQPGGSLRLSCTVSGFSLSSYAMSWVRQAPGKGLEWIGIIYDSASTYYASWAKGRFTISKDTSKNTLYLQMNSLRAEDTAVYFCARERQIFSGDMDGWGQGTTVTVSS
notes: tested as cleared E. coli lysate; also called DLX2528_2548
B17: DLX2680 (scFv)
scFv: EIVMTQSPSTLSASVGDRVIITCRASQSIGNWLSWYQQKPGKAPKLLIYRASNLASGVPSRFSGSGSGAEFTLTISSLQPEDFATYYCQNTGGGINIAFGQGTKLTVLGGGGGSGGGGSGGGGSGGGGSEVQLVESGGGNVQPGGSLRLSCTASGFSLSDAAMAWVRQAPGKGLEWVGIIYDSASTFYASWAKGRFTISRDNSKNTLYLQMNSLRAEDTATYYCARERNIFSGDMALWGQGTTVTVSS
notes: tested as cleared E. coli lysate; also called DLX2529_2530
B18: DLX2682 (scFv)
scFv: EIVMTQSPSTLSASVGDRVIITCRASQSIGNWLSWYQQKPGKAPKLLIYRASNLASGVPSRFSGSGSGAEFTLTISSLQPEDFATYYCQNTGGGINIAFGQGTKLTVLGGGGGSGGGGSGGGGSGGGGSEVQLVESGGGLVQPGGSLRLSCTVSGFSLSSYAMSWVRQAPGKGLEWIGIIYDSASTYYASWAKGRFTISKDTSKNTLYLQMNSLRAEDTAVYFCARERQIFSGDMDGWGQGTTVTVSS
notes: tested as cleared E. coli lysate; also called DLX2529_2548
B19: DLX2683 (scFv)
scFv: B18 scFv with I177V, L207V, F223Y, Q229A, M235F, G237Y, T243L
notes: tested as cleared E. coli lysate; also called DLX2529_2585
B20: DLX2684 (scFv)
scFv: EIVMTQSPSTLSASVGDRVTITCQASQSISSWLSWYQQKPGKAPKLLIYKASTLASGVPSRFSGSGSGTEFTLTISSLQPDDFATYYCQNAGGGVSIAFGQGTKLTVLGGGGGSGGGGSGGGGSGGGGSEVQLVESGGGNVQPGGSLRLSCTASGFSLSDAAMAWVRQAPGKGLEWVGIIYDSASTFYASWAKGRFTISRDNSKNTLYLQMNSLRAEDTATYYCARERNIFSGDMALWGQGTTVTVSS
notes: tested as cleared E. coli lysate; also called DLX2543_2530
B21: DLX2687 (scFv)
scFv: EIVMTQSPSTLSASVGDRVTITCQASQSISSWLSWYQQKPGKAPKLLIYKASTLASGVPSRFSGSGSGTEFTLTISSLQPDDFATYYCQNAGGGVSIAFGQGTKLTVLGGGGGSGGGGSGGGGSGGGGSEVQLVESGGGLVQPGGSLRLSCTVSGFSLSSYAMSWVRQAPGKGLEWVGIIYDSASTYYASWAKGRFTISKDTSKNTVYLQMNSLRAEDTAVYYCARERAIFSGDFDYWGQGTLVTVSS
notes: tested as cleared E. coli lysate; also called DLX2543_2585
B22: DLX2689 (scFv)
scFv: ADIVMTQSPSTLSASVGDRVTITCQASQSISSYLSWYQQKPGKAPKLLIYKASTLASGVPSRFSGSGSGTDFTLTISSLQPEDFATYYCQNAGGGINIAFGQGTKVEIKRGGGGSGGGGSGGGGSGGGGSEVQLVESGGGNVQPGGSLRLSCTASGFSLSNSAMAWVRQAPGKGLEWVGIIYDSASTYYASWAKGRFTISRDNSKNTVYLQMNSLRAEDTATYYCARERAIFSGDFALWGQGTLVTVSS
notes: tested as cleared E. coli lysate; also called DLX2544_2531
B23: DLX2690 (scFv)
scFv: ADIVMTQSPSTLSASVGDRVTITCQASQSISSYLSWYQQKPGKAPKLLIYKASTLASGVPSRFSGSGSGTDFTLTISSLQPEDFATYYCQNAGGGINIAFGQGTKVEIKRGGGGSGGGGSGGGGSGGGGSEVQLVESGGGLVQPGGSLRLSCTVSGFSLSSYAMSWVRQAPGKGLEWIGIIYDSASTYYASWAKGRFTISKDTSKNTLYLQMNSLRAEDTAVYFCARERQIFSGDMDGWGQGTTVTVSS
notes: tested as cleared E. coli lysate; also called DLX2544_2548
B24: DLX2692 (scFv)
scFv: ADIVMTQSPSTLSASVGDRVTITCQASQSISSYLSWYQQKPGKAPKLLIYRASTLASGVPSRFSGSGSGAEFTLTISSLQPDDFATYYCQNTGGGINIAFGQGTKLEIKRGGGGSGGGGSGGGGSGGGGSEVQLVESGGGNVQPGGSLRLSCTASGFSLSDAAMAWVRQAPGKGLEWVGIIYDSASTFYASWAKGRFTISRDNSKNTLYLQMNSLRAEDTATYYCARERNIFSGDMALWGQGTTVTVSS
notes: tested as cleared E. coli lysate; also called DLX2547_2530

Tests used:
[1] = biological target: T1, recombinant human IL-1 beta (human, UniProt P01584 117-269); assay: cell-based or functional assay
[2] = biological target: T1, recombinant human IL-1 beta; assay: ELISA, cleared E. coli lysate on coated rhIL-1 beta
Method: The resulting scFv mutants are expressed in 96-well format in 1 ml cultures in E. coli BL21 (DE3) (Novagen, USA, cat. no. 69450-3). […] Cells were lysed in lysis buffer (1 mM EDTA, 0.1 mg/ml lysozyme, PBS pH 7.2) in a 96-well format by freezing and subsequent thawing. Derived crude extracts were cleared by centrifugation. Supernatants were added to wells of a microtiterplate coated with 50 ng/ml of rhIL-1 beta (Peprotech) per well. After washing, bound scFvs are detected by ProteinL-HRP and binding to rhIL-1 beta quantified by BM Blue POD Substrate (Roche Applied Science).

Row | IC50 of IL-1 beta-induced IL-6 release from human dermal fibroblasts [1] | binding result [2] | Binder
1 | 4 pM | – | B1
2 | 4 pM | – | B2
3 | 300 pM | – | B3
4 | 25 pM | – | B4
5 | 15 pM | – | B5
6 | 200 pM | – | B6
7 | 100 pM | – | B7
8 | 5 pM | – | B8
9 | – | binds | B9
10 | – | binds | B10
11 | – | binds | B11
12 | – | binds | B12
13 | – | binds | B13
14 | – | binds | B14
15 | – | binds | B15
16 | – | binds | B16
17 | – | binds | B17
18 | – | binds | B18
19 | – | binds | B19
20 | – | binds | B20
21 | – | binds | B21
22 | – | binds | B22
23 | – | binds | B23
24 | – | binds | B24
